The values below come from article PMC11201802 (Protein Science : A Publication of the Protein Society, 2024).

What all share (assay): crystal structure
Experiment [1] concerns the target Fab^S1CE1-EPR-1.
The target in experiment [2] is Fab^S1CE3-EPR-1.
Experiment [3] deals with extracellular domain (ECD) of the human erythropoietin receptor (EPOR) with a C-terminal hexahistidine tag (human, UniProt P19235).
The target in experiment [4] is Fab^S1CE4-EPR-1.

extracellular domain (ECD) of the human erythropoietin receptor (EPOR) with a C-terminal hexahistidine tag, sequence (P19235 25-250): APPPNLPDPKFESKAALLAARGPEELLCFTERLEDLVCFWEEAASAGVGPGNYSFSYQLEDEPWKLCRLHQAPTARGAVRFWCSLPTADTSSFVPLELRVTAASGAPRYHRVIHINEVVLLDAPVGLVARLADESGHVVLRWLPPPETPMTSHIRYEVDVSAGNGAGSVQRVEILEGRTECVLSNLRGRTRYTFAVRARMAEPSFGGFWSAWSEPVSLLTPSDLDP

B1: Fab^S1CE1-EPR-1 (Fab, V domains shown)
VH: EVQLVESGGGLVQPGGSLRLSCAASGFNLRSYYMHWVRQAPGKGLEWVASISPYYSYTYYADSVKGRFTISADTSKNTAYLQMNSLRAEDTAVYYCARHGYGAMDYWGQGTLVTVFN
VL: DIQMTQSPSSLSASVGDRVTITCRASQSVSSAVAWYQQKPGKAPKLLIYSASSLYSGVPSRFSGSRSGTDFTLTISSLQPEDFATYYCQQSSYSLITFGQGTKVEIK
A word on the stoichiometry N: it is the number of molecules, sites or subunits per partner or assembly. Regarding B1, in experiment [1], the stoichiometry N came to 2.

B2: Fab^S1CE3-EPR-1 (Fab, V domains shown)
VH: EVQLVESGGGLVQPGGSLRLSCAASGFNLRSYYMHWVRQAPGKGLEWVASISPYYSYTYYADSVKGRFTISADTSKNTAYLQMNSLRAEDTAVYYCARHGYGAMDYWGQGTLVTVFN
VL: DIQMTQSPSSLSASVGDRVTITCRASQSVSSAVAWYQQKPGKAPKLLIYSASSLYSGVPSRFSGSRSGTDFTLTISSLQPEDFATYYCQQSSYSLITFGQGTKVEIK
In the case of B2, the stoichiometry N in experiment [2] was determined as 2.

B3: Fab^S1CE-EPR-1 (Fab, V domains shown)
VH: EVQLVESGGGLVQPGGSLRLSCAASGFNLRSYYMHWVRQAPGKGLEWVASISPYYSYTYYADSVKGRFTISADTSKNTAYLQMNSLRAEDTAVYYCARHGYGAMDYWGQGTLVTVFN
VL: DIQMTQSPSSLSASVGDRVTITCRASQSVSSAVAWYQQKPGKAPKLLIYSASSLYSGVPSRFSGSRSGTDFTLTISSLQPEDFATYYCQQSSYSLITFGQGTKVEIK
With B3, the binding result in experiment [3] was “binds”.

B4: Fab^S1CE4-EPR-1 (Fab, V domains shown)
VH: EVQLVESGGGLVQPGGSLRLSCAASGFNLRSYYMHWVRQAPGKGLEWVASISPYYSYTYYADSVKGRFTISADTSKNTAYLQMNSLRAEDTAVYYCARHGYGAMDYWGQGTLVTVFN
VL: DIQMTQSPSSLSASVGDRVTITCRASQSVSSAVAWYQQKPGKAPKLLIYSASSLYSGVPSRFSGSRSGTDFTLTISSLQPEDFATYYCQQSSYSLITFGQGTKVEIK
B4 showed a stoichiometry N in experiment [4] of 2.
